The results in this text go back to patent US20240115693A1 (CHILDREN S MEDICAL CENTER, published 2024).

This assay concerns the target T1, recombinant human ACE2 (hACE2-Fc, InvivoGen) (human, UniProt Q9BYF1 18-740).
T1 construct: not shown: Fc part of a bought reagent
As to the kind of experiment: ELISA, LuS-Tag coated, hACE2-Fc titrated. For orientation: In an ELISA, binding on a coated surface is turned into a signal by an enzyme label.

T1 sequence (Q9BYF1 18-740): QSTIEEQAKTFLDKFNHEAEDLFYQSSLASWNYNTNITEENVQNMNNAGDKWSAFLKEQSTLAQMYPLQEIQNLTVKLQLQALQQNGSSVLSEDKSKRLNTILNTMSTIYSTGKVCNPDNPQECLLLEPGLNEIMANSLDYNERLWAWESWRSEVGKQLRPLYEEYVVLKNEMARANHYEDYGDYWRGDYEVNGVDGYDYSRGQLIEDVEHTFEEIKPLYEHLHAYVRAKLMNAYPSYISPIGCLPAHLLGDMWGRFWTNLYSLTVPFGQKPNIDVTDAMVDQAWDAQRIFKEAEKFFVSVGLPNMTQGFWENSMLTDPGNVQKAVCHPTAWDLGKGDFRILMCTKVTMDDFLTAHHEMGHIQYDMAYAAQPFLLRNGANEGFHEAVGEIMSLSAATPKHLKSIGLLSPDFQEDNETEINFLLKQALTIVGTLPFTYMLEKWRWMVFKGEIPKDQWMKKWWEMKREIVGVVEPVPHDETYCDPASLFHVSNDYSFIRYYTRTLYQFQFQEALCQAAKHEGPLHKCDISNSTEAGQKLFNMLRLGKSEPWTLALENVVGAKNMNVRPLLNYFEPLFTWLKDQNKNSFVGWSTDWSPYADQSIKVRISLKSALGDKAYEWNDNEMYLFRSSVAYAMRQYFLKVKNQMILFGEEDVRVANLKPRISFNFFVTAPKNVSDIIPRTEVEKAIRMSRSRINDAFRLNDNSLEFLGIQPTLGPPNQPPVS

B1: Lumazine synthase expressing SpyTag (LuS-Tag) (other)
chain: AHIVMVDAYKPTKMQIYEGKLTAEGLRFGIVASRFNHALVDRLVEGAIDCIVRHGGREEDITLVRVPGSWEIPVAAGELARKENIDAVIAIGVLIRGATPHFDYIASEVSKGLANLSLELRKPITFGVITADTLEQAIERAGTKHGNKGWEAALSAIEMANLFKSLR
For B1, the binding result is “no binding (tested: starting at 10 µg/ml)”.
